Patent US20100267609

Columns and labels:
[1] = biological target: T1, substrate RWHHEVNLAAEF
T1 chain: RWHHEVNLAAEF

[2] = biological target: T2, substrate EVNLAVEFWHDR
T2 chain: EVNLAVEFWHDR

[3] = biological target: T3, substrate EEISEVNLAAEF
T3 chain: EEISEVNLAAEF

B1: memapsin 2 (spontaneously activated promemapsin 2-T1; amino acids 43-456 and 45-456 of SEQ ID NO: 8) (protein)
chain: LRLPRETDEEPEEPGRRGSFVEMVDNLRGKSGQGYYVEMTVGSPPQTLNILVDTGSSNFAVGAAPHPFLHRYYQRQLSSTYRDLRKGVYVPYTQGKWEGELGTDLVSIPHGPNVTVRANIAAITESDKFFINGSNWEGILGLAYAEIARPDDSLEPFFDSLVKQTHVPNLFSLGLCGAGFPLNQSEVLASVGGSMIIGGIDHSLYTGSLWYTPIRREWYYEVIIVRVEINGQDLKMDCKEYNYDKSIVDSGTTNLRLPKKVFEAAVKSIKAASSTEKFPDGFWLGEQLVCWQAGTTPWNIFPVISLYLMGEVTNQSFRITILPQQYLRPVEDVATSQDDCYKFAISQSSTGTVMGAVIMEGFYVVFDRARKRIGFAVSACHVHDEFRTAAVEGPFVTLDMEDCGYNIPQTDEST
**Q.** B1 was tested. Which “rate of catalysis, competitive cleavage of a mixture of three peptides (MALDI-TOF)” value [1] did it give?
**A.** The value was “the RWHH (SEQ ID NO: 53) sequence addition still demonstrated a 60-fold decrease in catalytic rate”.

**Q.** What about the “rate of catalysis, competitive cleavage of a mixture of two peptides (MALDI-TOF), against EVNLAAEFWHDR” value [1] of the same protein?
**A.** Its value is “a 60-fold decrease in the rate of catalysis for the upstream RWHH (SEQ ID NO: 53) sequence addition when compared to the downstream WHDR (SEQ ID NO: 29) sequence addition”.

**Q.** And the Km [2]?
**A.** Its Km is “Km of 83±8.9 mM”.

**Q.** What about the “rate of catalysis, competitive cleavage of a mixture of three peptides (MALDI-TOF)” value [3] of the same protein?
**A.** The value was “statistically identical rates of catalysis for the upstream EEIS (SEQ ID NO: 52) and the downstream WHDR (SEQ ID NO: 29) sequence additions”.
